Experimental data: the DeepSol protein solubility set

Test: soluble on expression in E. coli; label from the status in PepcDB or PDB records

Sequence | soluble on expression in E. coli
MKITFIGGGNMAGAMIGGLIHHGSTPSHICAVETDAMRRQQLAEACGVTVTASIPDGIHGSEIVILAVKPQQLRAVANQAAQFLQNKLVISIAAGVRASDLSQWLNRHEFVIRAMPNTPALIGEGITGLYALPLVDSRQKEQATTILEAIGTVIWVNEEAQLDAVTALSGSGPAYVFYFLEAMQEAGTQLGLTADTAKQLAMQTFLGATHLAAQSNDTLATLRMKVTSQGGTTEQALLSMEQADIRGAFIRAMHAACDRSRQMGEIFGRTLEHHHHHH | soluble
MKRFFLFILPVLLVITACKAPEEIVLPDKNLNVADRTIVYKKEPYTGKLVLPKSPRGNEGYMYVKDGHLEGNAEIKNEKDGFLLKYNINAGKFQGELLYKSGDGQLTLNVDKGVILSMQMSNDKEKTEYNFTFTDGLANGVFRHENKKNTAEIVFTDGMAKIENDGNIDVEAKFSINQNTWMITMESFVDGKSYSKTEKFLGINLETIEDIVFSSIEDYKTQK | not soluble
MKAVVQRVTRASVTVGGEQISAIGRGICVLLGISLEDTQKELEHMVRKILNLRVFEDESGKHWSKSVMDKQYEILCVSQFTLQCVLKGNKPDFHLAMPTEQAEGFYNSFLEQLRKTYRPELIKDGKFGAYMQVHIQNDGPVTIELESPAPGTATSDPKQLSKLEKQQQRKEKTRAKGPSESSKERNTPRKEDRSASSGAEGDVSSEREP | soluble
MQNPQNLIWIDLEMTGLDPDRDVIIEMATIVTDSDLNTLAEGPVIAIHQPEEILAGMDEWNTRQHGQSGLTQRVRESTVSMAEAEAQTLAFLEQWVPKRSSPICGNSICQDRRFLYRHMPRLEGYFHYRNLDVSTLKELAARWAPQVRESFKKGNTHLALDDIRESIAELRHYRDHFIKL | not soluble
MSLAQMPLTPNPDQHNAIQRVLKSLHHYQAFLLDGLTGSGKTEVYLQIMHEVLKQGKQVLVLVPEIGLTPQTISRFKSRFHCDVALLHSGLNDSKRLQAWQQAKMGKASIILGTRSAIYTPLPRLGLIILDEEHDLSYKQQEGFRYHARDVALYRGYLEQCPVILGSATPSIDSYHLVEQNKLELLQLNQRAGVALLPKMHLIDLKVAKKNEGLSQILIDQIQHTLDRQEQVLIFLNRRGYAPVLVCESCGWQANCPNCDAHFTLHTQPYGYLHCHHCGTIHRLPETCPECHHHTLKTLGMGTAKVEEHLKTLFPEHDVIRVDRDSTSRVGSWQKIYDRIQHNKPMILLGTQMLAKGHHFPYVTLVAILDIDAGLLSVDVRAPERTAQLIVQVAGRAGRGEHKGHVYMQTLRPDHPMLTTLIEKDYRAVAKDMLEERKAARLPPYRYSVLIRCESRDRDYSQAFLQEIAQMLQHQAGDSIEIWGPIPAPMERKAGRYRAHMVILAQDRARLHFFLRPWWAEVIQLPRQHQLRLSIDVDPQEFNEGHHHHHH | soluble
MKTTLLSAVLASTLLVCAPATVLAQPATSSAPAAQGAATKTVIDSSTRILSTLDQRRAEFRGNPAALRQYINGELNKAFDRDYSARLVLGVHGRGASDADVKLFADALAENLMQRYGTALLNFEGKPTFRAKSESALPGNRGVKVSTDLLRAGNDPTPVDYLMRNSGGQWKIFDVMIEGISYVQTFKTQFDGPLREKGIAKVAADLRSGNLQVGATPANGQLEHHHHHH | soluble
MGSDKIHHHHHHMADNKIIQHVYIVGSKGIPANYGGFETFVEKLTAGQENRQIKYHVASRFDNSEQAGKKQRFEYNGADVFSIDVPNIGSAQAIVYDYKALKEAIRISKQNQDKHPIFYVLANRIGPFAKHFAKEIHALGGRFYLNPDGHEWARAKWPKPVRKYWKYSEKKMVAAADLIIADNPEIEKYIKKEYSSFHPQTTYIAYGTDVQRSKLTMKDQKVRDWFKQKRITENNYFLVVGRFVPENNYETMIREFMTSRTKKDFVLVTNVEKNRFYERLKQRTHFDQDPRIKFVGTVYDQELLKYIRENAFAYFHGHEVGGTNPSLLEALSMTRLNMLIDVPFNRAVAKEGAMYWNKAIGNLTAQINQTETYDKKRIIDYTQAARKRVTDEFTWESIIAKYEELFVS | not soluble
MSDNALSPQKNHRRLAETLVDRFAQRMRDGVLVRGEKLPSEIHIMEAEGVSRTVVRDALSRMQAAGLVETRHGVGTFVLDMPPPEGFSVGPATIASVADVLNLLEFRLSLEVEAAGLAAQRRSPEALLELKRAFDALLEGPQKSGTTINADFQFHLKIAKASGNAYLIDIMKHLGTKLIPRTRMNSAYTGQSDRSAYLAGINAEHRQIYNAIAEGNVDAARAAMYLHLNGSRMRLRRTQALYSD | not soluble
SGTVHARSLEPLPSSGPDFGGLGEEAEFVEVEPEAKQEILENKDVVVQHVHFDGLGRTKDDIIICEIGDVFKAKNLIEVMRKSHEAREKLLRLGIFRQVDVLIDTCQGDDALPNGLDVTFEVTELRRLTGSYNTMVGNNEGSMVLGLKLPNLLGRAEKVTFQFSYGTKETSYGLSFFKPRPGNFERNFSVNLYKVTGQFPWSSLRETDRGMSAEYSFPIWKTSHTVKWEGVWRELGCLSRTASFAVRKESGHSLKSSLSHAMVIDSRNSSILPRRGALLKVNQELAGYTGGDVSFIKEDFELQLNKQLIFDSVFSASFWGGMLVPIGDKPSSIADRFYLGGPTSVRGFSMHSIGPQSEGDYLGGEAYWAGGLHLYTPLPFRPGQGGFGELFRTHFFLNAGNLCNLNYGEGPKAHIRKLAECIRWSYGAGIVLRLGNIARLELNYCVPMGVQTGDRICDGVQFGAGIRFL | soluble
MGNQCQNGTLGSDYHNRFPREHAVGYVQGDSYLDLKKFDDTWPEVNNFKPTAASILRRGLDPTSINVLGRKTADLREHYIIGRKLGQGQFGTTYLCTEINTGCEYACKTIPKRKLITKEDVEDVRREIQIMHHLSGHKNVVAIKDVYEDGQAVHIVMELCAGGELFDRIQEKGHYSERKAAELIRIIVSIVAMCHSLGVMHRDLKPENFLLLDKDDDLSIKAIDFGLSVFFKPGQAFTELVGSPYYVAPEVLHKRYGPESDVWSAGVILYVLLSGVPPFWAETQQGIFDAVLKGHIDFQSDPWPKISDSAKDLIRKMLSHCPSERLKAHEVLRHPWICENGVATDQALDPSVISRLKQFSAMNKLKKLALRVIAERLSEEEIAGLREMFKAVDTKNRGVITFGELREGLRRFGAEFKDTEIGDIMEAAHNDNNVTIHYEEFIAATLPLNKIEREEHLLAAFTYFDKDGSGYITVDKLQRACGEHNMEDSLLEEIISEVDQNNDGQIDYAEFVAMMQGSNVGLGWRTMESSLNVALRDAPQVH | not soluble
MLKKLKNFILFSSIFSPIAFAISCSNTGVVKQEDVSVSQGQWDKSITFGVSEAWLNKKKGGEKVNKEVINTFLENFKKEFNKLKNANDKTKNFDDVDFKVTPIQDFTVLLNNLSTDNPELDFGINASGKLVEFLKNNPGIITPALETTTNSFVFDKEKDKFYVDGTDSDPLVKIAKEINKIFVETPYASWTDENHKWNGNVYQSVYDPTVQANFYRGMIWIKGNDETLAKIKKAWNDKDWNTFRNFGILHGKDNSSSKFKLEETILKNHFQNKFTTLNEDRSAHPNAYKQKSADTLGTLDDFHIAFSEEGSFAWTHNKSATKPFETKANEKMEALIVTNPIPYDVGVFRKSVNQLEQNLIVQTFINLAKNKQDTYGPLLGYNGYKKIDNFQKEIVEVYEKAIK | soluble
MGSDKIHHHHHHMQTLPTPTTSSNTANQSTFDTTIKRRKTRPVKVGNVTIGGGYPVVVQSMINEDTLDIDGSVAAIRRLHEIGCEIVRVTVPSIAHAVALAEIKQKLITTYQDVPIVADVHHNGMKIALEVAKHIEKVRINPGLYVFEKPNTNRTEYTQAEFEEIGEKIRETLAPLVITLRDQGKAMRIGVNHGSLAERMLFTYGDTPEGMVESALEFIRICESLDFRNIVISMKASRVPVMVAAYRLMAKRMDDLGMDYPLHLGVTEAGDGEYGRIKSTAGIATLLADGIGDTIRVSLTEAPEKEIPVCYSILQALGLRKTMVEYVACPSCGRTLFNLEEVLHKVRESTKHLTGLDIAVMGCIVNGPGEMADADYGYVGKTPGYISLYRGREEIKKVPEDKGVEELINLIKADGRWVDP | not soluble
NDRFSWDTQFNISTIKNKLTSLIDEKPIPVGNHVLQVGQPIGSFYMYKMDGIYQDNQEVPEKLYAKGVRAGDIKYADKDNDGDLTPADKEIVGKPLPDFFGGLTNRFRYGNFDLTIFNTFSVGNDVYATGMGGIDAVGHNNYGMRKDIAANRWTGPGTNNSIPRAMISTHNTQASTYLLHDGSYFKFKDVTLGYTLPSNLTQKLNISNMRVYLSAQNLWTISSYPGYDPEVSYSVNNSKTMGEDAMTVPQLRTFVCGFNLTF | not soluble
SLTPLRVLIVEDDPRIAQLHQRFCEKVAGFEVSGLAATYEEADELATILEPDLLLLDLYLPDGNGMDLLRQLRSRGQEVDVVLITAAKDVAAVQQALRAGAFDYIVKPAVFARFEEALTKFAAYRQQLEQGDVLNQNDIDQLLHSHHQPKVMDRGAVPKGIDPLTLTKIRQVFADQEQQGLSAEEVGAQIGASRSTARRYLEYMVSISELTADVVYGTVGRPERRYFSFENEG | soluble
GSSDVQYTEVQVSSAESHKDLGKKDTETVYSEVRKAVPDAVESRYSRTEGSLDGT | soluble
MSLSFKNNLKLLLSTQNVLIYILNSEEERLEYKIHLMIRQNIKKTIYCWNFIDGYYNNPNYLNKAIRNPLQAIEFIEQLNFPTSTIFFLKDFHVFINDISVIRKIKNLSRFLKQANSSIIISASEMQVPSLLKDFITVLEFPLPNYEEINLELHRLFKIMNVDSSIYSEYFHDLTLAYRGFSIEKIRISIAKLLTSNLSSTHLIKNILYEKRQLIEQTDEGHHHHHH | not soluble
METAPKPVGPYSQAVESGCFMFVSGQIPINPETGALEEGGFKESAKRALDNLKAIVEGAGYSMDDIVKVTVYITDISRFSEFNEVYREYFNRPYPARAVVGVAALPLGAPLEVEAVLYTCRRK | soluble
MSASYQTIEHDVPQSYRDKILKWNGWGYSDSQFAINKDGHVTFTGDKYEISGKVMPHFRPWFENYLGIDLGFVSPAQKLSDVIIDAPVENEDIIEFLQENKISFSNEARIRLMRGHGHTVHDMINLREGKIPRLPDIVVWPKSEHEIVKIIEGAMSHNCAIIPIGGGTSVTNALDTPETEKRAVISMDMALLDKILWIDRENLTCRAQAGIVGQSLERQLNKKGFTCGHEPDSIEFSTLGGWVSTRASGMKKNKYGNIEDLVVHLNFVCPKGIIQKQCQVPRMSSGPDIHQIILGSEGTLGVVSEVTIKIFPIPEVKRFGSFVFPNFESGVNFFREVAIQRCQPASLRLMDNDQFVMGQALKVASDSWWADLKSSVSKMYITSWKGFKVDEICAATCVYEGNREEVDQHEERLNKLAEQFHGVVGGAENGQYGYRLTFAIAYLRDLGMNHGVLGESFETSVPWDKVLSLCRNVKELMKREAKAQGVTHPVLANCRVTQVYDAGACVYFYFGFNARGLKNGLEVYDRIETAARDEIIACGGSISHHHGVGKIRKQWMLTTNGAVGIALLKAIKSELDPANIFASANLIDIIGSPHCKL | not soluble
SDYDADELAEALQPVIVNTPHLKKPIGLIGAKGEFHPVLLAETSFPVQKKLTLKQAKGDFLIGVYEGDHHIEEKTLEPIPKEENAEEDDESEWSDDEPEVVREKLYTLGTKLMELGIKNANGVEIIFNINKDGALRVTARDLKTGNAVKGEL | not soluble
MTKQLPPGQFETEKWPILHEGDVYQFDEATWNFRLFGDVKEEVSLSYQEVMQLPKTVSTIDMHCVTTWSKFDTTFEGIAFREFLRFVELDPDVKYVKIYGYLNGDRFGYSANLPLEALMGDDALFVYRWKDKHHDWQDISPKHGYPLRFIPPATFYLWKGAKWASGIRFMKEDEPGYWEERGYSMTANPFKEERFAEWVPRIRF | not soluble
LNIHVTIREATEGDLEQMVHMLADDVLGRKRERYEKPLPVSYVRAFKEIKKDKNNELIVACNGEEIVGMLQVTFTPYLTYQGSWRATIEGVRTHSAARGQGIGSQLVCWAIERAKERGCHLIQLTTDKQRPDALRFYEQLGFKASHEGLKMHF | soluble
